Source: the DeepSol protein solubility set

Experiment: soluble on expression in E. coli; label from the status in PepcDB or PDB records

Row | Sequence | soluble on expression in E. coli
1 | MAHHHHHHMGTLEAQTQGPGSMSVSAAPSATSIDRYRRITKLGEGTYGEVYKAIDTVTNETVAIKRIRLEHEEEGVPGTAIREVSLLKELQHRNIIELKSVIHHNHRLHLIFEYAENDLKKYMDKNPDVSMRVIKSFLYQLINGVNFCHSRRCLHRDLKPQNLLLSVSDASETPVLKIGDFGLARAFGIPIRQFTHEIITLWYRPPEILLGSRHYSTSVDIWSIACIWAEMLMKTPLFPGDSEIDQLFKIFEVLGLPDDTTWPGVTALPDWKQSFPKFRGKTLKRVLGALLDDEGLDLLTAMLEMDPVKRISAKNALEHPYFSHNDFDP | soluble
2 | MGSDKIHHHHHHMLLRKAFKFEIRPNGEQIRKIKQFCGCSRFVFNRALAWQNEQYEQDNNQKFSYSKLTSLLPQWKKELIWLKECHSQVLQQSLKDLESAFKNFFQQRADFPKFKKKGIKESFRFPQGCKIQPQNDRLYLPKIGWVRYRNSREIVGEVKNVTVSQKCGRFFVSIQTEFEHEIPMHKGGEIGIDMGIARFATLSNGEFFEPINAFKTYKGKLAKLQKQLKNKVKFSKNWQKLKEKIGKLHHKIANCRKDFLHKISTQISKNHAMIYVEDLQVANMSKSAKGTVEAHGKNVKQKSGLNRSIRDQSWFEFRRQLDYKTQWLGGFLVAVPAQNTSRTCPCCGHIAKENRETQAHFECVECGYTENADVVGAMNVLTRGQAIVQA | not soluble
3 | MVGCLVVLLGAARKPARIFNLTPASASRYDSIHLCSLRTSLSCH | not soluble
4 | MGSDKIHHHHHHMTRADYLNQLEQALFQLHPSARQEALDYFNEYFDEKDNDEEAIIELGTPDEAAKEIIANLPEDALIPEKDQASPHSSKPFDFNFDFDFQFDWENFFNNFKHSAYQARERIKLTSKIEELPEFSNLQISLEDQALSVQSYEGEAVLLHNPVSEDGSYQAFDYQLVQDSLYISSKPTPNHLYFSNNQISSAILKIPKKLLPLTNLNLKTADSSLTIVDVQVCEQMVVNAKDSSISMTKVSCPSSALQLEDSTLTISDGQMSELKLEASDAVITLSSMSLSDARITLEDCVWKLKDFVLEKSLNCQAEDSVLTYKPSTDISLDIWEEDSSLKLPKDKAFTMMKEGDITHLSYKQENSPAQLVIHCQDCQLSVG | not soluble
5 | SSMIMYRKDLMEKAGLTMPDAPTWDFVKEAAQKMTDKDAEVYGICLRGKAGWGENMAFLTAMANSYGARWFDENWQPQFDGEAWKATLTDYLDMMTNYGPPGASNNGFNENLALFQQGKCGMWIDATVAASFVTNPEESTVADKVGFALAPDTGKGKRANWLWAWNLAIPAGSQKVDAAKQFIAWATSKDYAELVASKEGWANVPPGTRISLYENP | not soluble
6 | MATLEDGTSEDRVANDEYKIWKKNTPFLYDLVMTHALEWPSLSVQWLPDVAKDNSDHTIHRLILGTHTSDEQNHLLISKICMPTDDAQFDASRYDTERSEYGGFGAVNGKVEPDIRINHEGEVNRARYMPQKSNIIATKSPHADVYIFDYLKHSAVPRDNTFNPLIRLKGHTKEGYGLSWNPNKEGLILSASDDQTVCHWDINANQNVAGELQAKDVFKGHESVVEDVAWHVLHDGVFGSVGDDKKLLIWDVRTSTPGHCIDAHSAEVNCLAFNPYSEFILATGSADKTVALWDLRNLRMKLHSFESHRDEIFQVQWSPHNETILASSGTDKRLHVWDLSKIGEDQSAEDAEDGPPELLFIHGGHTAKISDFSWNPNEPWVVCSVSEDNILQVWQMADNIYNEVDEETPADVVERQQ | not soluble
7 | MAHHHHHHMRTSDARPASPSAAPPQSRKYQLSQRPLQLPRPPPRRFLEHPHHNLLPCTSDVKRLMENEYELRRVVRDVLLERLGMEGSHVEPPLRLCTEDSAEVTASPFCAVASVSTPLSSAGESAKQPRCAHDTGLRSMRAPDVDDIAGSSQPTWLMPWLQRLRMEQEKQLRQMRKMLVVARRSVSPDSSDVDARASSLMKTTGEARDDTRTAEPPHALLWQRHRCLPPADRPEAVEACSTLRAMQETMQAQSTQLARLEELLQETLIPDTARRTSHGAGALPLPSPSVHQVEAAAAARANHTGHRSRSNDTVLPTLTHTAASPKKNVRRAVPSRSGCSADVPAAAAAAAAATSSRVSTCVSAPSPPPRLHPEKRTLCGGVH | not soluble
8 | MGSDKIHHHHHHMANFSYEVFSKVVERGTLAKAAAELNVTPSAVSHSVSQLETELGFPLLIRNRTGVALTEDGAQVLPIIQSIQNLEEQLTQVADNINGVNTGRIRIGAFSSVSTNWLPTIIRRFKKRYPHIEISVVQGTFNRIVEAVRLGTADIGFSSLPVGPGVVVEPLLKDPIYCITAKQFKPKNGRTVTQADVDKQNFILQQIDYDRDTKNALDRYHVSSNAINYSIDDQSILSMVESGLGMGILPKLAVQKLVGDVNMYPFSEPFERTLCLVINPTIKKSPSVQRMQQVIHSFLAETYGEAFLGHQG | not soluble
9 | MRLDKYLSKSLHISRKEAKELIREGRVKVSGKVVKQAEYRVKEGEEVEVEGKSVKPKKNVYLMLYKPKGYLSTTEEDKKYPSFLELIREHFPSRKLFSAGRLDVDAEGLLLITDDGELAHRLTHPKWKVEKEYIVRLDRDIGDEELKKLYEVKLEEKPVQLVKAEKLSGDTVKAILTEGRHHVVKRLFKAVGHNVVYLKRTRVGNLRLDENMEPGEWRELTEEEVKELKRLVKYNPQN | soluble
10 | MATRFMTDPHAMRDMAGRFEVHAQTVEDEARRMWASAQNISGAGWSGMAEATSLDTMAQMNQAFRNIVNMLHGVRDGLVRDANNYEQQEQASQQILSS | not soluble
11 | HGSYIDITIDLKHYNGSVFDLRLSDYHPVKKVIDIAWQAQSVSMPPREGHWIRVVNKDKVFSGECKLSDCGITNGDRLEIL | soluble
12 | PVNTKRSNGTKRVEFPTTKKSMCIGNSTPNEQETFRAKVDEIWFRLTQKTDGTVMRDFLIEKAAEYFKQPEQPKQNAIEVISAIMAPQEEQTKSKADLYKFLAMFGPYETIMLKIASLLLISNNKGHWLTFDPQAEKNANNQRDSISGWFDQNEPNCLILKTPTGIRKIWNKPLIEATGQYLMDENGEKYDSWDKYFEMKPIETYLTAYPTFAPMHHHHHH | soluble
13 | GSRRASVGSHEVEKSGLLNMTKIAQGGRKLRKNWGPSWVVLTGNSLVFYREPPPTAPSSGWGPAGSRPESSVDLRGAALAHGRHLSSRRNVLHIRTIPGHEFLLQSDHETELRAWHRALRTVIERLVRW | soluble
14 | MPANIDGTLIKDPMVLNIMLFGSDERPGETGYGRSDTMMLLSIDNRNKKLKLTSFMRDTYVNVPEWGDTKLTHAYSYGGPALAIETIERNFGIDIDRYAVVYFDTFPGIVDTLGGIEVEMTQTEADVMNESVGPEFANFTEGKNTLNGATALVYVRIRYGVGDDFGRTQRQRDFMLQVLNKVKGTRDVGTLLTLLTKILPGVTTNISVNEMAGLAGGAISSYMDYPMYQFRLPEDGAFSAVDVDAGNVLAIDDWDAAREHLQRFIYEDTVDPIYGPLEHHHHHH | soluble
15 | MSLRAPRRSNADGLSENVLKAILEPAAAYMAETQKMKEEGNENGGSENTNIDQRNQLLQQASQRGSIGSFLDTTSLSTCSKRSLHSSRLTLSDSKEFYKTVGCRWIRSVRHGDVSTVKKMLEENSELVNYAPTYGPLALHLAAARSDRSIILLLLAKGAEVDSRDAAGYTCLQLAIRRGNQSLAHFLILQGANIELIDPDGRGIIDYDGWSGEDQRSAEKHFYGKIILRPKAHSFVGSPSSISMKSSKSTRTMRPSSTPNDSMISEYESSNLKRNEKQRSSWMSFFKSHTIFGSNSKS | not soluble
16 | MTDDKKMFDINEFLKRHLFVKNWVNYRQQSYTKYELMQLIESVEAALSVDDTLAKISPPVTIVGDIHGQYPDLVRVLCNQNSKEDAKKKAAYGFCNSRFVFLGDYVDRGHHSIECISLVFALKVVYPTNYILLRGNHETKSINYTYGFREELVNRLGPIDGFEIWERFNVAFSWMPLACLVGHKILCMHGGISPKLHSLKEINEIDRPVAEILPDSLAQDLLWADPADGQGAMTVRSTPEYVPNGVRGLSFIFNEAAVRDTCKRLNINLIVRAHQMIPEGFKFFADQKLLTIFSAPRYMNETDNHGATLRVETDGKLNIGRFRHKKLLHANSADEITRGDDIPNLERKKSGSMPVKHLKTSSSSSPSHSNGKSKGGEGLSLGKI | not soluble
17 | MDADSSNSTVTPGRLPDGLSSCPCFYLGKKLMNLSANAQATLLLTSDFSRAAASKYKPLSNSEWGKFALWLKHQRISPAELLVPQPQEKLTGWSDPRISQERILGLLARGHSLALAVDKWQRAGLWILTRGDADYPVRLKNRLRTDAPPVLFGCGNKALLQAEGMAIVGSRDAPTDDLRYTQQLAAKLAQQGICVISGGARGIDECAMASALEAGGTAVGVLADSLLKTSTLVKWREGLIAGNLVLISPFYPEVRFTVGNAMARNKYIYCLAESAMVVRAGMTGGTITGAMEALKHQWLPVQVKPNQDMQSANSRLVENGASWSAEQAENVTIRLPDVPGLMYDRALRNAQPELFSLHEDDANYAVMPAYTPVDFYQLFVAELAILAKESISIERLASCTGLTIEQISVWLNRAEEEGRVIRLGEGHYQFR | not soluble
18 | MAADESYPSVKERAFFQGLPFDYAVVFDNALIDRLFSRLRQERALVEDGLLARPDHRPWRLGALITEADTLDRRLSEQIRCLSGQSLPVASIALVTATTEAREAVSLWASVTCPPNVVVTPDPRAWMAEADLDLVVVFAPGALAHPGLFAALGRALQRDGADFAVWNHLLVRRRAEAPGQDITYLRCPDPTRQPVALAHMEAAGPAWAATPRLFETIKGDLGKALIGMARHPLSIALLRGKPKVVRLNEFLGACRVDSLGTPPWPRQSALVEAYGAALEDETFRLEIDPAHPTQPIRLTPRRRAHSIDIVINFRDKPELTLAAMGSIYAQTTTARVSLFLIDNQSTPAARAAIDAEAARAPAGIAVRVLSYDRPFNHSAQTNLGAAAGNGEALVFMSNDCALVDPGALDEMAAWALAPGVGTVGVRLETAEGRLACSGICALYPDHDFHPIVAEGFDQLGAGLNRETFANTFACACLARAVFRQAGPLDAIGFPIGLNDVDYCLRLRERGLRHLYLGAFLARHQALGSRPASDDGAQSAFLRQTYGHLLFDKEYMLEYDFLRQFTAAKLRQDIRSQRDKTTTVLEHHHHHH | not soluble
19 | MGSDKIHHHHHHAPSEAQQFTEFWTPGKPNPSICKSPLLVSTPLGLPRCLQASNVVKRLQKLEDIASLNDGNRAAATPGYQASVDYVKQTLQKAGYKVSVQPFPFTAYYPKGPGSLSATVPQPVTYEWEKDFTYLSQTEAGDVTAKVVPVDLSLGAGNTSTSGCEAEDFANFPAGSIALIQRGTCNFEQKAENAAAAGAAGVIIFNQGNTDDRKGLENVTVGESYEGGIPVIFATYDNGVAWSQTPDLQLHLVVDVVRKKTETYNVVAETRRGNPNNVVMVGAHLDSVFEGPGINDNGSGSAAQLEMAVLLAKALPVNKVRFAWWGAEEAGLVGSTHYVQNLAPEEKKKIKAYLNFDMIGSPNFGNFIYDGDGSDFGLQGPPGSAAIERLFEAYFRLRGQQSEGTEIDFRSDYAEFFNSGIAFGGLFTGAEGLKTEEQAQKYGGTAGKAYDECYHSKCDGIANINQDALEIHSDAMAFVTSWLSLSTKVVDDEIAAAGQKAQSRSLQMQKSASQIERWGHDFIK | not soluble
20 | MEKKLLRKEVLITLKSQPQAYKSEVDCKLLEAFIKTKAYQNSCVIATYLSFDYEYNTQLLIKQALCDGKRVLVPKTYPKGKMIFVDYQKDNLRTTPFGLLEPVNDRAVEKASIDLIHVPGLIFNNKGFRIGYGAGYFDRYLSDFEGDTISTIYRCQRQDFVEEKHDVAVKEVLCLLEHHHHHH | soluble
